pKd: −log10 of the molar value.

The target of one experiment is MadB, class I lantibiotic dehydratase of maddinglicin (His6-MadB) (Clostridium sp. Maddingley). Description: ITC; leader variant (200 µM, syringe, 20 injections of 2 µL) titrated into MadB (20 µM of the dimer, cell); 25 °C; 50 mM HEPES, 500 mM NaCl, pH 7.5; N counts leader peptide per MadB dimer; at least triplicate, error S.D.
Substance “MadL3, leader peptide of maddinglicin A with the first ten residues of the core peptide, residues -23 to +10” had a stoichiometry N of 0.97.
On to “MadL2, leader peptide of maddinglicin A with the first five residues of the core peptide, residues -23 to +5”, for which the stoichiometry N stood at 0.89.
“MadL2_VSVS, MadL2 with the lysines K-12 and K-10 of the VKVK motif changed to serine (peptide)” displayed a stoichiometry N of 1.12.
Same read-out and setting: under “MadL1, isolated leader peptide of maddinglicin A (MadA), residues -23 to -1” stands 1.21.

Another experiment addresses His6-MadB (class I lantibiotic dehydratase MadB) (Clostridium sp. Maddingley). Put plainly: ITC; 200 uM leader variant in the syringe titrated into 20 uM MadB dimer in the cell, 20 injections of 2 uL, 25 °C, 50 mM HEPES, 500 mM NaCl, pH 7.5.
Turning to “MadL1 (isolated leader peptide of maddinglicin A)”, the pKd was 6.39 and the stoichiometry N (LP per MadB dimer) worked out at 1.
“MadL3 (leader peptide of MadA with the first ten residues of the core peptide)” had a negative logarithm of the Kd (pKd) of 6.82 and a stoichiometry N (LP per MadB dimer) of 1.
The substance “MadL2 (leader peptide of MadA with the first five residues of the core peptide)” showed a pKd of 6.49 and a stoichiometry N (LP per MadB dimer) of 1.

These data come from article PMC12241602.
